The values that follow are results of earlier work, collected in paper PMC11430116.

The data set concerns the target VDAC1 (Homo sapiens) (UniProt P21796).
Sequence of UniProt P21796 (P21796 2-283): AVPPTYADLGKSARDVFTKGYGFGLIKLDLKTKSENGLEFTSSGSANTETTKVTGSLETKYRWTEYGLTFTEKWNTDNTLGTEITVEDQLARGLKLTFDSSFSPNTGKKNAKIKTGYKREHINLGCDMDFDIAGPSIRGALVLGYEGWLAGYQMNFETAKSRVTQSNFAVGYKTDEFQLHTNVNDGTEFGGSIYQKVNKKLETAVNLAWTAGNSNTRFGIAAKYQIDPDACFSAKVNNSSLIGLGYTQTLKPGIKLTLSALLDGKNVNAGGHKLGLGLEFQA

For the substance MAVS (from UniProt Q7Z434), the Kd was 950 nM.
